One data set has as its system T1, BVMOXeno.
T1 construct: gene BVMO_Xeno; purified enzyme, recombinant (E. coli); tag details only in supplement
As to the kind of experiment: steady-state kinetics, NADPH consumption. The class given is biochemical, Paraburkholderia xenovorans. The following applies: co-substrates NADPH and O2; 50 mM Tris-HCl, pH 8, 25 °C. From the text:
steady-state kinetics, NADPH consumption on BVMOXeno

A further data set relates to O=C1CCCCC1. Nature of the data set: purified protein. Conditions: co-substrates NADPH and O2, 50 mM Tris-HCl, pH 8, 25 °C.

As for `O=C1CCCCC1` [1a, cyclohexanone], the Michaelis constant (Km) in the data set on BVMOXeno was found to be 22.7 ± 5 µM.

With CHMOAcineto (Acinetobacter johnsonii), in the data set with O=C1CCCCC1, the Km is 266.6 ± 25.5 µM, the kcat was determined as 4.54 ± 0.095 s⁻¹ and the specificity constant (kcat/Km) came out at 17000 ± 1670 M⁻¹ s⁻¹.

By Km is commonly meant the concentration of substrate that gives half-maximal velocity. The kcat is the maximal rate divided by the concentration of active sites. The term kcat/Km denotes the turnover number divided by the Michaelis constant.
